In patent US20100310640A1 one finds IC50 data, which are given here for 12 molecules.

Common to all, as to details: remark: other sources report otherwise
The target of assay [1] is T1, HLA-DR molecule DRB1*0405 (human).
T1 chain 1: not shown
T1 chain 2: not shown
Kind of assay: radioligand inhibition, purified HLA-DR.

Assay [2] has as its target T2, HLA-DR molecule DRB1*0802 (human).
T2 chain 1: not shown
T2 chain 2: not shown
In words: radioligand inhibition, purified HLA-DR.

In assay [3] the target is T3, HLA-DR DRB1*0802 (human).
T3 chain 1: not shown
T3 chain 2: not shown
In words: radioligand competition, purified HLA-DR. A general note: In a radioligand displacement assay an active substance lowers the binding of a labelled ligand.

Assay [4] has as its target T4, HLA-DR DRB1*0101 (human).
T4 chain 1: not shown
T4 chain 2: not shown
In words: radioligand competition, purified HLA-DR.

In assay [5] the target is T5, HLA-DR DRB1*1302 (human).
T5 chain 1: not shown
T5 chain 2: not shown
In words: radioligand competition, purified HLA-DR.

The target in assay [6] is T6, HLA-DR DRB4*0101 (human).
T6 chain 1: not shown
T6 chain 2: not shown
In words: radioligand competition, purified HLA-DR.

The target of assay [7] is T7, HLA-DR molecule DRB5*0101 (human).
T7 chain 1: not shown
T7 chain 2: not shown
Kind of assay: radioligand inhibition, purified HLA-DR.

In assay [8] the target is T8, HLA-DR molecule DRB1*0701 (human).
T8 chain 1: not shown
T8 chain 2: not shown
Kind of assay: radioligand inhibition, purified HLA-DR.

The target in assay [9] is T9, HLA-DR molecule DRB1*0101 (human).
T9 chain 1: not shown
T9 chain 2: not shown
Kind of assay: radioligand inhibition, purified HLA-DR.

Assay [10] addresses T10, HLA-DR molecule DRB1*0404 (human).
T10 chain 1: not shown
T10 chain 2: not shown
Kind of assay: radioligand inhibition, purified HLA-DR.

Assay [11] has as its target T11, HLA-DR DRB1*1201 (human).
T11 chain 1: not shown
T11 chain 2: not shown
Kind of assay: radioligand inhibition, purified HLA-DR.

Assay [12] concerns the target T12, HLA-DR DRB1*0404 (human).
T12 chain 1: not shown
T12 chain 2: not shown
Kind of assay: radioligand inhibition, purified HLA-DR.

Assay [13] has as its target T4, HLA-DR DRB1*0101 (human). In words: radioligand inhibition, purified HLA-DR.
Assay [14] addresses HLA-DR DRB3*0101 (human). Kind of assay: radioligand inhibition, purified HLA-DR.
Assay [15] addresses T6, HLA-DR DRB4*0101 (human). Kind of assay: radioligand inhibition, purified HLA-DR.
Assay [16] has as its target T13, HLA-DR DRB1*0701 (human).
T13 chain 1: not shown
T13 chain 2: not shown
In words: radioligand competition, purified HLA-DR.

In assay [17] the target is T14, HLA-DR DRB1*0405 (human).
T14 chain 1: not shown
T14 chain 2: not shown
In words: radioligand competition, purified HLA-DR.

Assay [18] addresses T15, HLA-DR DRB5*0101 (human).
T15 chain 1: not shown
T15 chain 2: not shown
In words: radioligand competition, purified HLA-DR.

The target of assay [19] is T12, HLA-DR DRB1*0404 (human). In words: radioligand competition, purified HLA-DR.
Assay [20] addresses T16, HLA-DR DRB1*0301 (human).
T16 chain 1: not shown
T16 chain 2: not shown
Kind of assay: radioligand competition, purified HLA-DR.

Assay [21] has as its target T13, HLA-DR DRB1*0701 (human). Kind of assay: radiolabeled-peptide inhibition, purified HLA-DR.
In assay [22] the target is T17, HLA-DR DRB1*0401 (human).
T17 chain 1: not shown
T17 chain 2: not shown
Kind of assay: radiolabeled-peptide inhibition, purified HLA-DR.

Assay [23] concerns the target T14, HLA-DR DRB1*0405 (human). Kind of assay: radiolabeled-peptide inhibition, purified HLA-DR.
Assay [24] deals with T15, HLA-DR DRB5*0101 (human). In words: radiolabeled-peptide inhibition, purified HLA-DR.
Assay [25] deals with T11, HLA-DR DRB1*1201 (human). In words: radiolabeled-peptide inhibition, purified HLA-DR.
Assay [26] addresses T12, HLA-DR DRB1*0404 (human). Kind of assay: radiolabeled-peptide inhibition, purified HLA-DR.
Assay [27] addresses T16, HLA-DR DRB1*0301 (human). In words: radiolabeled-peptide inhibition, purified HLA-DR.
For assay [28], the target named is T4, HLA-DR DRB1*0101 (human). In words: radiolabeled-peptide inhibition, purified HLA-DR.
The target in assay [29] is T6, HLA-DR DRB4*0101 (human). In words: radiolabeled-peptide inhibition, purified HLA-DR.
In assay [30] the target is T13, HLA-DR DRB1*0701 (human). In words: radioligand inhibition, purified HLA-DR.
Assay [31] addresses T17, HLA-DR DRB1*0401 (human). Kind of assay: radioligand inhibition, purified HLA-DR.
Assay [32] has as its target T14, HLA-DR DRB1*0405 (human). In words: radioligand inhibition, purified HLA-DR.
Assay [33] addresses T3, HLA-DR DRB1*0802 (human). Kind of assay: radioligand inhibition, purified HLA-DR.
In assay [34] the target is T18, HLA-DR DRB1*0901 (human).
T18 chain 1: not shown
T18 chain 2: not shown
In words: radioligand inhibition, purified HLA-DR.

The target in assay [35] is T5, HLA-DR DRB1*1302 (human). In words: radioligand inhibition, purified HLA-DR.
For assay [36], the target named is T19, HLA-DR DRB1*1101 (human).
T19 chain 1: not shown
T19 chain 2: not shown
In words: radioligand inhibition, purified HLA-DR.

In assay [37] the target is T15, HLA-DR DRB5*0101 (human). In words: radioligand inhibition, purified HLA-DR.
The target in assay [38] is T16, HLA-DR DRB1*0301 (human). Kind of assay: radioligand inhibition, purified HLA-DR.
Assay [39] addresses T20, HLA-DR molecule DRB1*1201 (human).
T20 chain 1: not shown
T20 chain 2: not shown
In words: radioligand inhibition, purified HLA-DR.

The target of assay [40] is T21, HLA-DR molecule DRB1*1302 (human).
T21 chain 1: not shown
T21 chain 2: not shown
In words: radioligand inhibition, purified HLA-DR.

Assay [41] concerns the target T22, HLA-DR molecule DRB4*0101 (human).
T22 chain 1: not shown
T22 chain 2: not shown
Kind of assay: radioligand inhibition, purified HLA-DR.

Assay [42] addresses T23, HLA-DR molecule DRB1*0401 (human).
T23 chain 1: not shown
T23 chain 2: not shown
Kind of assay: radioligand inhibition, purified HLA-DR.

For assay [43], the target named is T24, HLA-DR molecule DRB1*1101 (human).
T24 chain 1: not shown
T24 chain 2: not shown
Kind of assay: radioligand inhibition, purified HLA-DR.

The target of assay [44] is T11, HLA-DR DRB1*1201 (human). In words: radioligand competition, purified HLA-DR.
Assay [45] has as its target T19, HLA-DR DRB1*1101 (human). Kind of assay: radioligand competition, purified HLA-DR.

For the molecule LKSGMKELAVFREKV [Peptide 9019.0185 (IGFBP2.184)], the concentration for half-maximal inhibition (IC50) in [1] came out at 34 nM; in assay [2], 260 nM.

As for PPSMVAAGSVVAAVQ [Cyclin D1.199 (peptide 9019.0170)], the IC50 was determined as 1400 nM in assay [3], 6.8 nM in [4], 55 nM in assay [5] and 91 nM in assay [6].

On to ERGPLEHLYSLHIPN [Peptide 9019.0190 (IGFBP2.249)], for which the IC50 in assay [7] was 4000 nM; in [8], 18 nM; in assay [1] it was 110 nM; in assay [9], 7.7 nM; in assay [10] it was 29 nM.

As for CHLFYNEQQEARGVH [Peptide 9019.0023], the half-maximal inhibitory concentration (IC50) amounted to 1860 nM in [11]; 3190 nM in assay [12]; 2490 nM in assay [13]; 18900 nM in assay [14]; 5310 nM in [15].

Take FYTLHVIKSDLVNEE [CEA.119 (peptide 9019.0114)]: the 50% inhibitory concentration (IC50) was determined as 56 nM in assay [16]; 41 nM in assay [17]; 4500 nM in assay [18]; 169 nM in assay [19]; 80 nM in assay [20]; 22 nM in [6].

On to CYGLGMEHLREVRAV [9019.0044], for which the IC50 in assay [21] turned out to be 271 nM; in assay [22] it was 1030 nM; in [23], 5120 nM; in [24] it was 3780 nM; in [25], 19000 nM; in [26], 493 nM. Besides, the IC50 worked out at 265 nM in assay [27], 130 nM in [28] and 444 nM in [29].

For HNQVRQVPLQRLRIV [Her/neu.88], the 50% inhibitory concentration (IC50) in [30] was 80 nM; in assay [31], 840 nM; in assay [32] it was 1300 nM; in assay [33], 9 nM; in assay [11], 42 nM; in assay [12] it was 78 nM. Also, the half-maximal inhibitory concentration (IC50) in [34] was 6940 nM; in assay [35], 270 nM; in [15], 18 nM; in assay [36], 21 nM.

For RPRFRELVSEFSRMA [Peptide 9019.0095], the 50% inhibitory concentration (IC50) came out at 309 nM in [30]; 38 nM in [31]; 151 nM in [32]; 26 nM in assay [37]; 376 nM in [33]; 62 nM in [12]. Moreover, the concentration for half-maximal inhibition (IC50) was 6220 nM in [38]; 26 nM in [13]; 2320 nM in assay [34]; 351 nM in [15]; 125 nM in assay [36].

Regarding HNQVRQVPLQRLRIV [Peptide 9019.0034 (Her2/neu.88)], the IC50 came to 42 nM in assay [39]; 80 nM in assay [8]; 1300 nM in assay [1]; 270 nM in assay [40]; 85 nM in assay [2]; 18 nM in [41]. The IC50 was determined as 840 nM in assay [42], 21 nM in assay [43] and 78 nM in assay [10].

Turning to LLTFWNPPTTAKLTI [CEA.24 (peptide 9019.0105)], the half-maximal inhibitory concentration (IC50) in assay [16] was determined as 3.7 nM; in assay [18], 13 nM; in assay [44] it was 5000 nM; in assay [19], 52 nM; in assay [4] it was 6.9 nM; in assay [45], 52 nM.

Consider LREVRAVTSANIQEF [Peptide 9019.0046 (Her2/neu.350)], for which the results for the 50% inhibitory concentration (IC50) in assay [7], in assay [9] and in assay [10] were 94 nM, 17 nM and 8.2 nM, respectively.

With TAKLTIESTPFNVAE [CEA.33 (peptide 9019.0106)], the 50% inhibitory concentration (IC50) in assay [19] was 41 nM; in [5], 35 nM; in [6], 53 nM; in [45] it was 6000 nM.

As a reminder, the IC50 is the concentration needed to halve the response being measured.
